This is an account of results in the Immune Epitope Database (IEDB).

The target of assay [1] is HLA-A*24:03. Briefly: IEDB peptide-MHC binding, purified MHC/competitive/fluorescence; filed as Kd, often an IC50 or EC50 that approximates it; ≥ and ≤ were set here for values at or beyond the usual limits of such assays.
For assay [2], the target named is HLA-A*69:01. The assay is described as above.
Assay [3] deals with HLA-A*23:01. The assay is described as above.
The target in assay [4] is HLA-A*02:16. The assay is described as above.
The target in assay [5] is HLA-A*26:01. The assay is described as above.
Assay [6] concerns the target HLA-B*46:01. Described as above.
Assay [7] concerns the target HLA-B*57:01. Described as above.
Assay [8] addresses HLA-A*68:02. The description is as above.
Assay [9] deals with HLA-A*02:12. Described as above.
Assay [10] addresses HLA-A*02:19. Described as above.
Assay [11] has as its target HLA-A*02:03. The description is as above.
For assay [12], the target named is HLA-A*03:01. Described as above.
In assay [13] the target is HLA-A*02:11. Described as above.
For assay [14], the target named is HLA-A*02:01. The assay is described as above.
Assay [15] concerns the target HLA-B*27:03. The assay is described as above.
Assay [16] concerns the target HLA-B*51:01. The description is as above.
In assay [17] the target is HLA-B*39:01. The description is as above.
Assay [18] concerns the target HLA-B*18:01. The description is as above.
Assay [19] has as its target HLA-A*02:50. The description is as above.
Assay [20] has as its target HLA-A*69:01. The experiment in a line: IEDB peptide-MHC binding, purified MHC/direct/fluorescence; filed as Kd, often an IC50 or EC50 that approximates it; ≥ and ≤ were set here for values at or beyond the usual limits of such assays.
Assay [21] deals with HLA-A*02:11. The assay is described as above.
The target of assay [22] is HLA-A*02:01. The description is as above.
Assay [23] addresses HLA-A*29:02. Briefly: IEDB peptide-MHC binding, purified MHC/competitive/fluorescence; filed as Kd, often an IC50 or EC50 that approximates it; ≥ and ≤ were set here for values at or beyond the usual limits of such assays.
In assay [24] the target is HLA-B*15:01. The assay is described as above.
The target of assay [25] is HLA-B*15:17. The assay is described as above.
Assay [26] deals with HLA-C*12:03. The experiment in a line: IEDB peptide-MHC binding, purified MHC/direct/fluorescence; filed as Kd, often an IC50 or EC50 that approximates it; ≥ and ≤ were set here for values at or beyond the usual limits of such assays. To be noted: source organism: Salmonella enterica subsp. enterica serovar Typhi.
Assay [27] concerns the target HLA-B*15:09. The description is as above. To be noted: source organism: Variola virus.
Assay [28] addresses HLA-B*39:01. Described as above. The note with it: source organism: Camelpox virus CMS.
For assay [29], the target named is HLA-A*31:01. The experiment in a line: IEDB peptide-MHC binding, purified MHC/competitive/fluorescence; filed as Kd, often an IC50 or EC50 that approximates it; ≥ and ≤ were set here for values at or beyond the usual limits of such assays. The note with it: source organism: Canarypox virus.
Setting [30] is: source organism: Vibrio parahaemolyticus RIMD 2210633.
The mark [31] stands for this setting: source organism: Mycobacterium tuberculosis.
The mark [32] stands for this setting: source organism: Coxiella burnetii 'MSU Goat Q177'.
The mark [33] stands for this setting: source organism: Salmonella enterica subsp. enterica serovar Typhi.
Where [34] appears, read: source organism: Yersinia pestis Nepal516.
Where [35] appears, read: source organism: Canarypox virus.

A value given as a limit tells only on which side of the number the result lay.

What is called Kd is a measure of binding affinity in units of concentration. Low readings indicate tighter binding, high ones weaker binding. As for GTVPTDNPF, the Kd in [1] (setting [30]), in [2] (setting [30]), in assay [3] (setting [30]), in [4] (setting [30]), in assay [5] (setting [30]) and in assay [6] (setting [30]) was at least 20 µM in each case. Further, the Kd in assay [7] (setting [30]) is 5.47 µM; in assay [8] (setting [30]), at least 20 µM; in assay [9] (setting [30]) it was at least 20 µM; in [10] (setting [30]), at least 20 µM; in assay [11] (setting [30]), at least 20 µM; in assay [12] (setting [30]) it was at least 20 µM. Moreover, the dissociation constant Kd in assay [13] (setting [30]), in assay [14] (setting [30]), in [15] (setting [30]), in assay [16] (setting [30]), in assay [17] (setting [30]) and in assay [18] (setting [30]) was at least 20 µM in each case.
Turning to SFYGYGFNV, the Kd worked out at 0.0224 µM in assay [19] (source organism: Mycobacterium tuberculosis H37Ra), 0.052 µM in assay [20] (setting [31]), 0.01 µM in assay [21] (source organism: Mycobacterium tuberculosis str. Haarlem) and 0.413 µM in assay [22] (setting [31]).
In the case of AVDWYQQRI, the Kd in assay [23] (setting [32]) was at least 20 µM; in assay [1] (setting [32]) it was at least 20 µM; in assay [2] (setting [32]) it was at least 20 µM; in assay [24] (setting [32]) it was at least 20 µM; in assay [3] (setting [32]), at least 20 µM; in assay [4] (setting [32]) it was 0.36 µM. For the same sequence, the Kd in assay [5] (setting [32]), in assay [6] (setting [32]), in [7] (setting [32]), in assay [8] (setting [32]), in [9] (setting [32]) and in assay [10] (setting [32]) was at least 20 µM in each case. Moreover, the Kd in [25] (setting [32]), in assay [11] (setting [32]), in [12] (setting [32]), in assay [13] (setting [32]), in assay [14] (setting [32]) and in assay [15] (setting [32]) was at least 20 µM throughout. Further, the Kd in [16] (setting [32]), in assay [17] (setting [32]) and in [18] (setting [32]) was at least 20 µM throughout.
FIKNPACTV: the dissociation constant (Kd) in assay [19] (setting [33]) was 0.0019 µM; in [20] (setting [33]) it was 0.154 µM; in [26], at most 0.001 µM; in assay [21] (setting [33]) it was 0.002 µM; in assay [22] (setting [33]) it was 6.36 µM.
As to YADGGQWYN, the dissociation constant (Kd) in assay [23] (setting [34]), in assay [1] (setting [34]), in assay [2] (setting [34]), in assay [24] (setting [34]), in [3] (setting [34]) and in assay [4] (setting [34]) was at least 20 µM each time. Further, the Kd in assay [5] (setting [34]), in assay [6] (setting [34]), in assay [7] (setting [34]), in [8] (setting [34]), in assay [9] (setting [34]) and in assay [10] (setting [34]) was at least 20 µM in each case. Moreover, the dissociation constant Kd is at least 20 µM in assay [25] (setting [34]); at least 20 µM in [11] (setting [34]); at least 20 µM in assay [12] (setting [34]); 0.0562 µM in assay [13] (setting [34]); at least 20 µM in assay [14] (setting [34]); at least 20 µM in assay [15] (setting [34]). The Kd in [17] (setting [34]) and in assay [18] (setting [34]) was at least 20 µM each time.
On to AHDELENYI, for which the Kd turned out to be 1.67 µM in assay [27] and 2.86 µM in assay [28].
On to GTIIVHPNK, for which the dissociation constant (Kd) in assay [1] (setting [35]) is at least 20 µM; in [2] (setting [35]) it was at least 20 µM; in assay [29] it was 0.101 µM; in assay [24] (setting [35]) it was at least 20 µM; in [3] (setting [35]), at least 20 µM; in assay [4] (setting [35]), at least 20 µM. In addition, the Kd in [5] (setting [35]), in [6] (setting [35]), in [7] (setting [35]), in [8] (setting [35]), in assay [9] (setting [35]) and in [10] (setting [35]) was at least 20 µM throughout. The Kd in assay [25] (setting [35]), in [11] (setting [35]), in assay [13] (setting [35]), in assay [14] (setting [35]), in assay [15] (setting [35]) and in [16] (setting [35]) was at least 20 µM each time. Besides, the equilibrium dissociation constant (Kd) in assay [17] (setting [35]) and in assay [18] (setting [35]) was at least 20 µM each time.
